In IntAct's records for PubMed 23463101:

B1: Trinucleotide repeat-containing gene 6C protein (Homo sapiens), Q9HCJ0-1 (parent)
chain: MATGSAQGNFTGHTKKTNGNNGTNGALVQSPSNQSALGAGGANSNGSAARVWGVATGSSSGLAHCSVSGGDGKMDTMIGDGRSQNCWGASNSNAGINLNLNPNANPAAWPVLGHEGTVATGNPSSICSPVSAIGQNMGNQNGNPTGTLGAWGNLLPQESTEPQTSTSQNVSFSAQPQNLNTDGPNNTNPMNSSPNPINAMQTNGLPNWGMAVGMGAIIPPHLQGLPGANGSSVSQVSGGSAEGISNSVWGLSPGNPATGNSNSGFSQGNGDTVNSALSAKQNGSSSAVQKEGSGGNAWDSGPPAGPGILAWGRGSGNNGVGNIHSGAWGHPSRSTSNGVNGEWGKPPNQHSNSDINGKGSTGWESPSVTSQNPTVQPGGEHMNSWAKAASSGTTASEGSSDGSGNHNEGSTGREGTGEGRRRDKGIIDQGHIQLPRNDLDPRVLSNTGWGQTPVKQNTAWEFEESPRSERKNDNGTEAWGCAATQASNSGGKNDGSIMNSTNTSSVSGWVNAPPAAVPANTGWGDSNNKAPSGPGVWGDSISSTAVSTAAAAKSGHAWSGAANQEDKSPTWGEPPKPKSQHWGDGQRSNPAWSAGGGDWADSSSVLGHLGDGKKNGSGWDADSNRSGSGWNDTTRSGNSGWGNSTNTKANPGTNWGETLKPGPQQNWASKPQDNNVSNWGGAASVKQTGTGWIGGPVPVKQKDSSEATGWEEPSPPSIRRKMEIDDGTSAWGDPSNYNNKTVNMWDRNNPVIQSSTTTNTTTTTTTTTSNTTHRVETPPPHQAGTQLNRSPLLGPGRKVSSGWGEMPNVHSKTENSWGEPSSPSTLVDNGTAAWGKPPSSGSGWGDHPAEPPVAFGRAGAPVAASALCKPASKSMQEGWGSGGDEMNLSTSQWEDEEGDVWNNAASQESTSSCSSWGNAPKKGLQKGMKTSGKQDEAWIMSRLIKQLTDMGFPREPAEEALKSNNMNLDQAMSALLEKKVDVDKRGLGVTDHNGMAAKPLGCRPPISKESSVDRPTFLDKDGGLVEEPTPSPFLPSPSLKLPLSHSALPSQALGGIASGLGMQNLNSSRQIPSGNLGMFGNSGAAQARTMQQPPQPPVQPLNSSQPSLRAQVPQFLSPQVQAQLLQFAAKNIGLNPALLTSPINPQHMTMLNQLYQLQLAYQRLQIQQQMLQAQRNVSGSMRQQEQQVARTITNLQQQIQQHQRQLAQALLVKQPPPPPPPPHLSLHPSAGKSAMDSFPSHPQTPGLPDLQTKEQQSSPNTFAPYPLAGLNPNMNVNSMDMTGGLSVKDPSQSQSRLPQWTHPNSMDNLPSAASPLEQNPSKHGAIPGGLSIGPPGKSSIDDSYGRYDLIQNSESPASPPVAVPHSWSRAKSDSDKISNGSSINWPPEFHPGVPWKGLQNIDPENDPDVTPGSVPTGPTINTTIQDVNRYLLKSGGKLSDIKSTWSSGPTSHTQASLSHELWKVPRNSTAPTRPPPGLTNPKPSSTWGASPLGWTSSYSSGSAWSTDTSGRTSSWLVLRNLTPQIDGSTLRTLCLQHGPLITFHLNLTQGNAVVRYSSKEEAAKAQKSLHMCVLGNTTILAEFAGEEEVNRFLAQGQALPPTSSWQSSSASSQPRLSAAGSSHGLVRSDAGHWNAPCLGGKGSSELLWGGVPQYSSSLWGPPSADDSRVIGSPTPLTTLLPGDLLSGESL

Key:
[1] = variants of: B1; conditions: with cnot1_human CNOT1, A5YKK6
pabp_drome pAbp, P21187 [2] = variants of: B1; conditions: with pabp_drome pAbp
pabp_drome pAbp, P21187 [3] = variants of: B1; conditions: with pabp_drome pAbp; remark: listed apart in the source
pabp_drome pAbp, P21187 [4] = variants of: B1; conditions: with pabp_drome pAbp; remark: listed apart in the source

pabp_drome pAbp, P21187, sequence (P21187 whole entry): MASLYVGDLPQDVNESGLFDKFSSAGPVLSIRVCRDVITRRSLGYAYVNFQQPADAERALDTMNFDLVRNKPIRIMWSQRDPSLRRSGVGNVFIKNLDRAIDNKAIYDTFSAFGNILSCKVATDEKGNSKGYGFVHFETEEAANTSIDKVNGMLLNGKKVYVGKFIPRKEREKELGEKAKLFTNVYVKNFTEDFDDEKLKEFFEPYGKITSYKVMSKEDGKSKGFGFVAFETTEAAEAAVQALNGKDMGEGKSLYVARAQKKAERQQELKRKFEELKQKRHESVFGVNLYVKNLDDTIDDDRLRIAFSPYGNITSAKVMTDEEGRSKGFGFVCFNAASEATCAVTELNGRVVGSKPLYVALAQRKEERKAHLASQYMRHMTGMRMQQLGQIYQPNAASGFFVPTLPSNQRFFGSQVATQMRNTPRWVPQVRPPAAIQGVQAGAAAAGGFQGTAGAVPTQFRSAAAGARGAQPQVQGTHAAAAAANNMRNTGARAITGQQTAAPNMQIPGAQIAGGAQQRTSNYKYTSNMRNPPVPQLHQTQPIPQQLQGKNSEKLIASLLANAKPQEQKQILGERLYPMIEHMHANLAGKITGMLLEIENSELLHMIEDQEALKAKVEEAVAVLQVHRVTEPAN
cnot1_human CNOT1, A5YKK6, sequence (A5YKK6 whole entry): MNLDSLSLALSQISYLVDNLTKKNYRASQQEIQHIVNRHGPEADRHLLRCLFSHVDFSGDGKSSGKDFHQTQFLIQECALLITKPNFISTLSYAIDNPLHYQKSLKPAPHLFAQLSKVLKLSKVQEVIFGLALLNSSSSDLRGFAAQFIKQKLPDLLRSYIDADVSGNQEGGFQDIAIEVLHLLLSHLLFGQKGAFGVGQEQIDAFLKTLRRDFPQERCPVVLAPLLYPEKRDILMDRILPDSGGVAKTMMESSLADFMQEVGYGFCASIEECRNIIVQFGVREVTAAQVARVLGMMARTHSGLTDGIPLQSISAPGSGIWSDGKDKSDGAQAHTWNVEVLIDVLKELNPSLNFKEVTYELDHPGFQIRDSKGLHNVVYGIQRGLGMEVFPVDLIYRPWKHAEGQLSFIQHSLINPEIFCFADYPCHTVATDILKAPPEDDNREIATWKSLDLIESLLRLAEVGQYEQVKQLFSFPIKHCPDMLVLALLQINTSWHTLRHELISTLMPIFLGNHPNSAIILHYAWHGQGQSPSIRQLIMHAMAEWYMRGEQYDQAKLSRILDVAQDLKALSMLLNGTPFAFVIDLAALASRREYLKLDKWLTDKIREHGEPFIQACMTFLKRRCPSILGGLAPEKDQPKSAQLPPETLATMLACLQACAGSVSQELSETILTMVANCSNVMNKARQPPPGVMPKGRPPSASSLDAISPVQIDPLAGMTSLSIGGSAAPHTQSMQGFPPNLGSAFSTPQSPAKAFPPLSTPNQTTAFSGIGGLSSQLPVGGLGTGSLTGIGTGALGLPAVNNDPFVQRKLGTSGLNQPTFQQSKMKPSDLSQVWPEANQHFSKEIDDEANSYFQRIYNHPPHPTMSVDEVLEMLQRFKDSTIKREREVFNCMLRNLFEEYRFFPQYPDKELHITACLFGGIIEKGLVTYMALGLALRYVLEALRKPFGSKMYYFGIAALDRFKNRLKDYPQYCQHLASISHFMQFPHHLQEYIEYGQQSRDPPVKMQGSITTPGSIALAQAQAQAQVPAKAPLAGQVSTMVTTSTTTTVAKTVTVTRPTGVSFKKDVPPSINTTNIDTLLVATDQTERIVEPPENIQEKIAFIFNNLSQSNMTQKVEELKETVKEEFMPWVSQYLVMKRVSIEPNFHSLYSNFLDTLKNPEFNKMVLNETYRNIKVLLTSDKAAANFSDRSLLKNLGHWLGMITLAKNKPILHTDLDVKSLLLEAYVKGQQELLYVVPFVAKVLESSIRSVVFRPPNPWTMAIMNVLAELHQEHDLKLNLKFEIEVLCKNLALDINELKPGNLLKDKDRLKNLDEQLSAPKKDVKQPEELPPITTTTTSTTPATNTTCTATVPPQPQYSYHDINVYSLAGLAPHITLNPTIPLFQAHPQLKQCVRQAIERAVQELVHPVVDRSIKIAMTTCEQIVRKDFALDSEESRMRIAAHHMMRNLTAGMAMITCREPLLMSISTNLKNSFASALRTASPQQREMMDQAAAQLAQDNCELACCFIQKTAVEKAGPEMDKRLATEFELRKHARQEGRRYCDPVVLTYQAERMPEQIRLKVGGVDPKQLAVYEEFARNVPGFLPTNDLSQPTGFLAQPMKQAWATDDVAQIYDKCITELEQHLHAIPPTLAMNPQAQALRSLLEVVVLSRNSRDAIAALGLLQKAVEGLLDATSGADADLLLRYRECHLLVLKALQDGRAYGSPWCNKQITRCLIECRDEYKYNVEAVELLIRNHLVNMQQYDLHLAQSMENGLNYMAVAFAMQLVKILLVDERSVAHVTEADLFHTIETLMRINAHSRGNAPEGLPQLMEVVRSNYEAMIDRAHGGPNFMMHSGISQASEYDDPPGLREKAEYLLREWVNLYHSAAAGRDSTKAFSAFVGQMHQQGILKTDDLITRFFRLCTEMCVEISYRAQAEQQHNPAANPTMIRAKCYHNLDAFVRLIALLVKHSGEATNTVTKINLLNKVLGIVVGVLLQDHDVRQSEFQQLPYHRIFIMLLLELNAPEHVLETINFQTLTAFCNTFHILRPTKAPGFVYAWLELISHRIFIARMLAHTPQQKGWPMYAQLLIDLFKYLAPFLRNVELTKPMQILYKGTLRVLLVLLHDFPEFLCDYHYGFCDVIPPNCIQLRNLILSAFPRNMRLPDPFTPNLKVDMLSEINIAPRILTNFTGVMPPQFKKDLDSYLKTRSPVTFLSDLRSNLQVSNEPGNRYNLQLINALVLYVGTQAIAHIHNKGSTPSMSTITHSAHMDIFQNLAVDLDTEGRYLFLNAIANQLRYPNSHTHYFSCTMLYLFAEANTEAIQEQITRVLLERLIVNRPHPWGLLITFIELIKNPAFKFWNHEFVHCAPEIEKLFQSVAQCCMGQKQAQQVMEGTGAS

effect of a mutation on the interaction [1]	effect of a mutation on the interaction (pabp_drome pAbp, P21187 [2])	effect of a mutation on the interaction (pabp_drome pAbp, P21187 [3])	effect of a mutation on the interaction (pabp_drome pAbp, P21187 [4])	Variant
disrupting interaction	decreasing interaction	decreasing interaction	–	Q1294A;S1295A;R1296A;L1297A;Q1299A;W1300A
–	–	–	disrupting interaction	F1389A
